Measurements: patent US20240166727A1 (CEINGE BIOTECNOLOGIE AVANZATE SCARL, published 2024)

Target: Spike glycoprotein on SARS-COV-2 viral particles (Italian Variant, Genbank MT682732.1, GISAID EPI_ISL_477204) (SARS-COV-2, UniProt P0DTC2 14-1273)
Assay: cell-based or functional assay

B1: D3 mAb (fully human IgG4 anti-Spike RBD antibody) (antibody, V domains shown)
VH: QVQLVQSGAEVKKPGATVKISCKVSGYTFTDYYMHWVQQAPGKGLEWMGLVDPEDGETIYAEKFQGRVTITADTSTDTAYMELSSLRSEDTAVYYCARGAKATLGLWGQGTLVTVSR
VL: ELTQDPAVSVALGQTVRITCQGDSLRSYYASWYQQKPGQAPVLVIYGKNNRPSGIPDRFSGSSSGNTASLTITGAQAEDEADYYCNSRDSSGNHVVFGGGTKLTVL
- IC50 of inhibition of viral infectivity (VERO E6 cells, 0.5 MOI): 15 µg/mL
